Source: patent US20190106498A1, “TREATMENT FOR ACUTE MYELOID LEUKEMIA” (priority 2017, published 2019)

Legend:
[1] = Phase I/II trial: peripheral blood counts; type: in vivo, human
Description: By C2D17, the percentage of blasts in peripheral blood was 0.8% by flow cytometry and 0% by cell morphology.
Patient 1001003 is a person with AML with myelodysplasia-related changes by WHO classification (AML-M2 by FAB classification) and 24% bone marrow blasts. […] Blast percentage at C1D1 was stable.

AML = experiment: Phase I/II trial of ARGX-110 with AZA: clinical response; type: in vivo, human; details: for Time to best response: cycle/day
Description: The study included a screening phase (between Day −35 and Day −14), a loading dose of ARGX-110 (Day −14) and an open-label treatment phase during which subjects visited the study center for administration of the study drug (Day −14 until disease progression), and end-of-treatment (EOT) evaluations performed within 7 days after the last ARGX-110 treatment. Additional follow-up evaluations were scheduled at 30 and 60 days (±7 days) after the EOT date. The 60-days follow-up visit was also the end-of-study (EOS) visit.
Clinical response to treatment was categorised according Table 3: […]

blasts = experiment: Phase I/II trial: blasts in bone marrow and peripheral blood (cytomorphology, flow cytometry, MRD); type: in vivo, human
Experimental: FIGS. 6A-6C Bone marrow (BM) blast load was assessed by cytomorphology (FIG. 6A), and flow cytometry using leukemia-associated immunophenotype (LAIP) gating (FIG. 6B) and blast gating (SSClow CD45dim; FIG. 6C). The latter method was used to determine measurable/minimal residual disease (MRD) status of the patient.
FIGS. 7A-7C Peripheral blood (PB) blast load was assessed by cytomorphology (FIG. 7A), and flow cytometry using leukemia-associated immunophenotype (LAIP) gating (FIG. 7B) and blast gating (SSClow CD45 dim; FIG. 7C). The latter method was used to determine measurable/minimal residual disease (MRD) status of the patient.
Minimal residual disease (MRD) assessments were performed on bone marrow aspirates and/or whole blood collected at time points as specified in FIG. 5. Flow cytometry was utilized as the primary method of MRD analysis. Suitable flow cytometry markers for MRD assessment and determining AML subtype include CD16, CD13, CD34, CD117, CD11 b, CD10, HLA-DR, CD45, CD35, CD64, IREM-2, CD36, CD105, CD14, CD33, CD71, CD36, CD105, CD33, CD71, cTdT, CD56, CD7, CD19, cMPO, cLactoferrin, cLysozyme. An additional panel was used as a part of the trial, focusing on CD70, CD27 expression as well as markers indicative of stem cell potential or myeloid differentiation: CD27, CD70, CD34, CD117, CD11 b, HLA-DR, CD45, CD38, and CD123. When available, flow cytometry results were compared to other molecular approaches such as polymerase chain reaction (PCR) test.
For each patient, the number of blasts in bone marrow and peripheral blood were assessed at various time-points as outlined in FIG. 5.
To assess bone marrow blasts, bone marrow aspirates taken at the various time points were analysed. Methylcellulose colony assays using FACS sorted monocytes (mononuclear cells (CD45^dim) were selectively sorted by excluding doublets, dead cells and lymphocytes using Annexin V and antibodies for CD19 and CD4/CD8) were used to assess the number of LSCs in the bone marrow. In addition, bone marrow blast percentages were also assessed by cell morphology and flow cytometric analysis.

AML LSCs = experiment: Colony plating assay of AML LSCs; type: cell-based, human; details: P6, P8, P11; all disease risk categories
Experimental: FIGS. 3A-3F Anti-CD70/decitabine co-treatment reduces re-plating capacity of human CD34+CD38− AML stem/progenitor cells. […] Colonies and cells were enumerated after 14 days. (FIG. 3A) Colonies per 1×10^3 plated cells. (FIG. 3B) Cells per colony. (FIG. 3C) Serial re-plating experiments. (d-f) FACS-purified lin-CD90+CD34+CD38− stem/progenitor cells from BM of “healthy” donors were cultured and plated in methylcellulose as described in (a-c). (FIG. 3D) Colonies per 1×10^3 plated cells. (FIG. 3E) Cells per colony. (FIG. 3F) Serial re-plating experiments. Data are represented as mean±S.D. Statistics: One-way-ANOVA. Dunnett's post-test (vs. αCD70/D); *, P<0.05; **, P<0.01; ***, P<0.001.

[2] = patient 1001002, 1 mg/kg with AZA, C3D17
[3] = patient 1001003, with AZA, C2D1
[4] = patients treated for sufficient time to assess response
[5] = patient 1001001, 1 mg/kg with AZA, C3D1
[6] = patient 1001001, 1 mg/kg with AZA, C4D1
[7] = patient 1001002, 1 mg/kg with AZA, C2D17
[8] = patient 1001002, single dose 1 mg/kg

B1: ARGX-110: IgG1 anti-CD70 antibody with defucosylated Fc region; VH SEQ ID NO: 4, VL SEQ ID NO: 8 (antibody, V domains shown)
VH: EVQLVESGGGLVQPGGSLRLSCAASGFTFSVYYMNWVRQAPGKGLEWVSDINNEGGTTYYADSVKGRFTISRDNSKNSLYLQMNSLRAEDTAVYYCARDAGYSNHVPIFDSWGQGTLVTVSS
VL: QAVVTQEPSLTVSPGGTVTLTCGLKSGSVTSDNFPTWYQQTPGQAPRLLIYNTNTRHSGVPDRFSGSILGNKAALTITGAQADDEAEYFCALFISNPSVEFGGGTQLTVLG
modifications: IgG1, defucosylated Fc; Custom antibody fragment
- Hb [1, 2]: 10.2 g/dL
- absolute neutrophil count (ANC) [1, 2]: 0.97 G/L
- platelets [1, 2]: 128 G/L
- ANC [1, 3]: 0.38 G/L
- Hb [1, 3]: 9.2 g/dL
- platelets [1, 3]: 98 G/L
- Time to best response (AML; Cohort 1 (1 mg/kg) with AZA, one line per patient, 1 mg/kg): EOT
- Time to best response (AML; Cohort 2 (3 mg/kg) with AZA, one line per patient, 3 mg/kg): EOT
- Best response to date (AML; Cohort 4 (20 mg/kg) with AZA, one line per patient, 20 mg/kg): No response
- patients in each cohort showing complete remission (AML; each of the 1 mg/kg, 3 mg/kg and 10 mg/kg cohorts): 2 of the 3
- patients responding (response rate) (AML; [4]): more than 90%
- responding patients / assessed patients (AML; [4]): 10/11
- PB blast percentage (blasts; following monotherapy, C1D1 vs earlier): reduced
- bone marrow blasts according to MRD criteria (blasts; in vivo): significantly reduced
- bone marrow blast percentage (blasts; majority of patients, by C1D1 following monotherapy): at least partially or completely reduced by C1D1
- BM blasts by flow cytometry (blasts; [5]): 2.8%
- MRD for peripheral blood (blasts; [5]): 0.3%
- minimal residual disease analysis (MRD), bone marrow (blasts; [5]): 0.2%
- peripheral blood blast percentage by cell morphology (blasts; [6]): 0%
- peripheral blood blast percentage by flow cytometry (blasts; [6]): 0.8%
- peripheral blood MRD class (blasts; patient 1001001, 1 mg/kg with AZA, C4D17): MRD-negative
- peripheral blood blasts (blasts; patient 1001001, 1 mg/kg with AZA, after first complete cycle (C2D1)): cleared
- blast cell populations by cell morphology and flow cytometry (blasts; patient 1001001, single (loading) dose 1 mg/kg): reduction in bone marrow and in peripheral blood
- percentage of blasts in peripheral blood by cell morphology (blasts; [7]): 0%
- percentage of blasts in peripheral blood by flow cytometry (blasts; [7]): 0.8%
- overall blast percentage in peripheral blood (blasts; patient 1001002, 1 mg/kg with AZA, end of cycle 1 (C2D1)): approaching zero
- overall blast percentage in peripheral blood (blasts; patient 1001002, after loading dose 1 mg/kg (C1D1 vs screening)): fell
- percentage of total blasts in bone marrow by cell morphology (blasts; [8]): an increase was observed
- percentage of total blasts in bone marrow by flow cytometry (blasts; [8]): appeared to be reduced
- blast percentage (blasts; patient 1001003, C1D1): stable
- peripheral blasts (blasts; patient 1001003, with AZA, 1 cycle (C2D1)): no peripheral blasts
- PB blast percentage (blasts; under combination therapy with aza, from C1D1 onwards): further reduced
- number of colonies formed by AML LSCs (AML LSCs): reduce the number of colonies
